The target of this assay is T1, human TL1A (human, UniProt O95150 72-251, limits assumed).
T1 construct: also called tumor necrosis factor-like cytokine 1A; TNFSF15
T1 sequence (looked up): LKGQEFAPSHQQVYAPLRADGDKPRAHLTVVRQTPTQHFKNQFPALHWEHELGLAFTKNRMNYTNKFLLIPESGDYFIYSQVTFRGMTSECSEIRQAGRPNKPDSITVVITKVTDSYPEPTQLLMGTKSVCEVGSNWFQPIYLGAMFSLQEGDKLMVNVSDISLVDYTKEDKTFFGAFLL
Description: ELISA titration on plate-coated human TL1A, unpurified culture supernatant.

Numbering of substitutions follows the chain as printed.

B1: A171 (antibody, IgG1, V domains shown)
VH: QVQLVQSGAEVKKPGASVKVSCKASGFDIQDTYMHWVRQAPGQGLEWMGRIDPASGHIKYDPKFQGRATITTDTSTSTVYMELSSLRSEDTAVYYCARSGGLPDWWGQGTTVTVSS
VL: EIVLTQSPGTLSLSPGERATLSCRASSSVSYMYWYQQKPGQAPRPWIYATSNLASGIPDRFSGSGSGTDFTLTISRLEPEDFAVYYCQQWEGNPRTFGGGTKLEIK
In turn, B1 came in with a Kd of 0.05 nM.

B2: A205 (antibody, IgG1, V domains shown)
VH: B1 VH with Q1E, R38K, A40R, M48I, I58T, G66V, V79A, M81L, W105V
VL: B1 VL with P45L, W46L
With B2, the affinity, expressed as Kd, was 0.055 nM.

B3: A173 (antibody, IgG1, V domains shown)
VH: B1 VH with R38K, D52E, I70M, T72R
VL: B1 VL
Consider B3, for which the Kd is 0.04 nM.

B4: A189 (antibody, IgG1, V domains shown)
VH: B1 VH with R38K, A40R, M48I, I58T, G66V, A68V, I70M, V79A, M81L, W105V
VL: B1 VL with P45L, W46L
B4 yielded a dissociation constant (Kd) of 0.076 nM.

B5: A172 (antibody, IgG1, V domains shown)
VH: B1 VH with I70M, T72R
VL: B1 VL
Consider B5, for which binding was characterised by a dissociation constant (Kd) of 0.04 nM.

B6: A186 (antibody, IgG1, V domains shown)
VH: B1 VH with R38K, A40R, M48I, I58T, G66V, I70M, V79A, M81L, W105V
VL: B1 VL with P45L, W46L
Molecule B6 returned a Kd of 0.067 nM.

B7: A181 (antibody, IgG1, V domains shown)
VH: B1 VH with A40R, M48I, I58T, G66V, V79A, M81L, W105V
VL: B1 VL with P45L, W46L
The molecule B7 yielded a Kd of 0.06 nM.

B8: A215 (antibody, IgG1, V domains shown)
VH: B1 VH with A40R, I58T, G66V, A68V, V79A, M81L, W105V
VL: B1 VL with W46L
B8 came in with a Kd of 0.048 nM.

B9: A204 (antibody, IgG1, V domains shown)
VH: B1 VH with Q1E, D52E, A68V, I70M, T72R, V79A
VL: B1 VL with W46L
Turning to B9, the equilibrium dissociation constant (Kd) was 0.053 nM.

B10: A211 (antibody, IgG1, V domains shown)
VH: B1 VH with R38K, A40R, M48I, I58T, G66V, V79A, M81L, W105V
VL: B1 VL with W46L
Regarding B10, the affinity, expressed as Kd, was 0.058 nM.

B11: A174 (antibody, IgG1, V domains shown)
VH: B1 VH with D52E, I70M, T72R, V79A
VL: B1 VL
B11 registered a Kd of 0.043 nM.

B12: A175 (antibody, IgG1, V domains shown)
VH: B1 VH with R38K, A68V, I70M, T72R
VL: B1 VL with W46L
As to B12, the Kd was found to be 0.045 nM.

B13: A199 (antibody, IgG1, V domains shown)
VH: B1 VH with Q1E, R38K, A40R, M48I, I58T, G66V, V79A, M81L, W105V
VL: B1 VL with W46L
In turn, B13 had a Kd of 0.05 nM.

B14: A184 (antibody, IgG1, V domains shown)
VH: B1 VH with R38K, A40R, M48I, I58T, G66V, T72R, V79A, M81L, W105V
VL: B1 VL with P45L, W46L
Take B14: the Kd is 0.061 nM.

B15: A190 (antibody, IgG1, V domains shown)
VH: B1 VH with R38K, A40R, M48I, I58T, G66V, M81L, W105V
VL: B1 VL with P45L, W46L
The molecule B15 registered a Kd of 0.057 nM.

B16: A177 (antibody, IgG1, V domains shown)
VH: B1 VH
VL: B1 VL with W46L
Molecule B16 came in with a Kd of 0.052 nM.

B17: A176 (antibody, IgG1, V domains shown)
VH: B1 VH with A68V, I70M, T72R, V79A
VL: B1 VL with W46L
Take B17: the Kd turned out to be 0.048 nM.

B18: A179 (antibody, IgG1, V domains shown)
VH: B1 VH with R38K, D52E, I70M, T72R
VL: B1 VL with W46L
On to B18, for which the Kd turned out to be 0.079 nM.

B19: A202 (antibody, IgG1, V domains shown)
VH: B1 VH with Q1E, D52E, I70M, T72R
VL: B1 VL with W46L
The molecule B19 returned a Kd of 0.059 nM.

B20: A209 (antibody, IgG1, V domains shown)
VH: B1 VH with Q1E, R38K, D52E, A68V, I70M, T72R
VL: B1 VL with P45L, W46L
B20 had a dissociation constant (Kd) of 0.058 nM.

B21: A193 (antibody, IgG1, V domains shown)
VH: B1 VH with Q1E, R38K, A40R, M48I, I58T, G66V, V79A, M81L, W105V
VL: B1 VL
Turning to B21, the affinity, expressed as Kd, was 0.055 nM.

B22: A192 (antibody, IgG1, V domains shown)
VH: B1 VH with R38K, A40R, M48I, I58T, G66V, W105V
VL: B1 VL with P45L, W46L
Turning to B22, binding was put at a Kd of 0.055 nM.

B23: A206 (antibody, IgG1, V domains shown)
VH: B1 VH with Q1E, A40R, M48I, I58T, G66V, V79A, M81L, W105V
VL: B1 VL with P45L, W46L
B23 came in with a Kd of 0.05 nM.

B24: A195 (antibody, IgG1, V domains shown)
VH: B1 VH with Q1E, D52E
VL: B1 VL
On to B24, for which the Kd was 0.056 nM.

B25: A196 (antibody, IgG1, V domains shown)
VH: B1 VH with Q1E, D52E, I70M, T72R
VL: B1 VL
The molecule B25 showed a Kd of 0.054 nM.

B26: A185 (antibody, IgG1, V domains shown)
VH: B1 VH with R38K, A40R, M48I, I58T, G66V, I70M, T72R, V79A, M81L, W105V
VL: B1 VL with P45L, W46L
With B26, the Kd is 0.056 nM.

B27: A178 (antibody, IgG1, V domains shown)
VH: B1 VH with I70M, T72R
VL: B1 VL with W46L
Turning to B27, binding was put at a Kd of 0.043 nM.

B28: A191 (antibody, IgG1, V domains shown)
VH: B1 VH with R38K, A40R, M48I, I58T, G66V, V79A, W105V
VL: B1 VL with P45L, W46L
Consider B28, for which the affinity, expressed as Kd, was 0.057 nM.

B29: A180 (antibody, IgG1, V domains shown)
VH: B1 VH with D52E, I70M, T72R, V79A
VL: B1 VL with W46L
As to B29, binding was put at a Kd of 0.058 nM.

B30: A182 (antibody, IgG1, V domains shown)
VH: B1 VH with R38K, M48I, I58T, G66V, V79A, M81L, W105V
VL: B1 VL with P45L, W46L
Turning to B30, binding was put at a Kd of 0.067 nM.

B31: A214 (antibody, IgG1, V domains shown)
VH: B1 VH with A40R, I58T, G66V, A68V, T72R, V79A, M81L, W105V
VL: B1 VL with W46L
For the molecule B31, the affinity, expressed as Kd, was 0.051 nM.

B32: A198 (antibody, IgG1, V domains shown)
VH: B1 VH with Q1E, D52E, A68V, I70M, T72R, V79A
VL: B1 VL
In turn, B32 yielded a Kd of 0.053 nM.

B33: A201 (antibody, IgG1, V domains shown)
VH: B1 VH with Q1E, D52E
VL: B1 VL with W46L
As to B33, binding was characterised by a dissociation constant (Kd) of 0.058 nM.

B34: A200 (antibody, IgG1, V domains shown)
VH: B1 VH with Q1E, A40R, M48I, I58T, G66V, V79A, M81L, W105V
VL: B1 VL with W46L
In turn, B34 came in with a Kd of 0.052 nM.

B35: A197 (antibody, IgG1, V domains shown)
VH: B1 VH with Q1E, R38K, D52E, A68V, I70M, T72R
VL: B1 VL
B35 had a Kd of 0.054 nM.

B36: A194 (antibody, IgG1, V domains shown)
VH: B1 VH with Q1E, A40R, M48I, I58T, G66V, V79A, M81L, W105V
VL: B1 VL
For the molecule B36, the Kd came out at 0.051 nM.

B37: A188 (antibody, IgG1, V domains shown)
VH: B1 VH with R38K, A40R, M48I, I58T, G66V, A68V, V79A, M81L, W105V
VL: B1 VL with P45L, W46L
In the case of B37, the affinity, expressed as Kd, was 0.063 nM.

B38: A203 (antibody, IgG1, V domains shown)
VH: B1 VH with Q1E, R38K, D52E, A68V, I70M, T72R
VL: B1 VL with W46L
B38 came in with a Kd of 0.062 nM.

B39: A216 (antibody, IgG1, V domains shown)
VH: B1 VH with A40R, M48I, I58T, G66V, A68V, T72R, V79A, M81L, W105V
VL: B1 VL with W46L
In turn, B39 had a Kd of 0.049 nM.

B40: A187 (antibody, IgG1, V domains shown)
VH: B1 VH with R38K, A40R, M48I, I58T, G66V, A68V, T72R, V79A, M81L, W105V
VL: B1 VL with P45L, W46L
The molecule B40 displayed a Kd of 0.056 nM.

B41: A183 (antibody, IgG1, V domains shown)
VH: B1 VH with R38K, A40R, I58T, G66V, V79A, M81L, W105V
VL: B1 VL with P45L, W46L
B41 came in with a Kd of 0.065 nM.

B42: A210 (antibody, IgG1, V domains shown)
VH: B1 VH with Q1E, D52E, A68V, I70M, T72R, V79A
VL: B1 VL with P45L, W46L
Regarding B42, binding was characterised by a dissociation constant (Kd) of 0.07 nM.

The term Kd denotes the equilibrium constant for the complex coming apart. A higher Kd goes with a looser complex.

The record behind these values is patent US20260216326A1 (PROMETHEUS BIOSCIENCES, published 2026).
